Laboratory results from patent US20210205286A1.

Assays:
USP7 (endogenous) [1] = target: USP7 (endogenous) (UniProt Q93009); test: APEX2-Gal9 proximity biotinylation, SILAC LC-MS/MS, GPN; first of three experiments
USP7 (endogenous) [2] = target: USP7 (endogenous) (UniProt Q93009); test: APEX2-Gal9 proximity biotinylation, SILAC LC-MS/MS, GPN; third of three experiments
USP7 (endogenous) [3] = target: USP7 (endogenous) (UniProt Q93009); test: APEX2-Gal9 proximity biotinylation, SILAC LC-MS/MS, LLOMe; second of three experiments
USP7 (endogenous) [4] = target: USP7 (endogenous) (UniProt Q93009); test: APEX2-Gal9 proximity biotinylation, SILAC LC-MS/MS, LLOMe; first of three experiments
USP7 (endogenous) [5] = target: USP7 (endogenous) (UniProt Q93009); test: APEX2-Gal9 proximity biotinylation, SILAC LC-MS/MS, GPN; second of three experiments
USP7 (endogenous) [6] = target: USP7 (endogenous) (UniProt Q93009); test: APEX2-Gal9 proximity biotinylation, SILAC LC-MS/MS, LLOMe; third of three experiments

Sequence of USP7 (endogenous) (Q93009 whole entry): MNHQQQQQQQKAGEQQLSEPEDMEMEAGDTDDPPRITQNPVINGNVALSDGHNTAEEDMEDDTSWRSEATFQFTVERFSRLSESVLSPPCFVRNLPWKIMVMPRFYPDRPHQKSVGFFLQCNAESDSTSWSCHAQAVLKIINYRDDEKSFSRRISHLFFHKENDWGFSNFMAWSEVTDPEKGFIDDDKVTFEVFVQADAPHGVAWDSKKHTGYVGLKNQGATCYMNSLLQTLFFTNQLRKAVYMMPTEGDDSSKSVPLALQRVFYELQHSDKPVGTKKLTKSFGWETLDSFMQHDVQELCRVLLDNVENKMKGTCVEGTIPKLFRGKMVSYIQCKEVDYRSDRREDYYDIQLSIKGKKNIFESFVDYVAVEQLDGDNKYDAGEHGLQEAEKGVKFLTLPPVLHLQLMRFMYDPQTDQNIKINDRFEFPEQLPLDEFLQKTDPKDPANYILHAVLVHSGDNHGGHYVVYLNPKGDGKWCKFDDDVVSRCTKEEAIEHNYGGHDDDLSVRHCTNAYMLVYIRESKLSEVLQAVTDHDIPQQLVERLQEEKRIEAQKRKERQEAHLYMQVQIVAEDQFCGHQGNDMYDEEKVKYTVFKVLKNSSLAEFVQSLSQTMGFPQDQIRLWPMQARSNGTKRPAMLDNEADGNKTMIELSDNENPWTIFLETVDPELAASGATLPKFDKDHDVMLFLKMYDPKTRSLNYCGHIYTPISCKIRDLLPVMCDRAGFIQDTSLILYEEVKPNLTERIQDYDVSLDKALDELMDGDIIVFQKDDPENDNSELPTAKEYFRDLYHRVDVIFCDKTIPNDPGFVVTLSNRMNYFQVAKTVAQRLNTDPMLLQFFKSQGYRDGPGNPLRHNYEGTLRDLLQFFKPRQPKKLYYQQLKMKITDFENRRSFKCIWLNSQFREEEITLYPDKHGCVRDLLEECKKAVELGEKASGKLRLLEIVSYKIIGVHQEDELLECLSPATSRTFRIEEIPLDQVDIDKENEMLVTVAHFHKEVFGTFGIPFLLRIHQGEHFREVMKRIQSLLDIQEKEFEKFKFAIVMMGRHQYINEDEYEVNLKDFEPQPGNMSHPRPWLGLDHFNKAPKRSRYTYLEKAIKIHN

“APEX2-myc-Gal9 (from UniProt O00182 1-323)” was tested, and the peptide counts (peptide counts) (USP7 (endogenous) [1]) was 3, the peptide counts (peptide counts) (USP7 (endogenous) [2]) was 3 and the peptide counts (peptide counts) (USP7 (endogenous) [3]) was 3. The peptide counts (peptide counts) (USP7 (endogenous) [4]) was 2, the peptide counts (peptide counts) (USP7 (endogenous) [5]) was 4 and the peptide counts (peptide counts) (USP7 (endogenous) [6]) was 2.
